From PMC3592463
Where two headings read alike, the source gives them in different places.

T1: Tat(44-61) (UniProt P04608 44-61)
T1 chain: GISYGRKKRRQRRRAHQN


Key:
Tat(44-61) [1] = molecular target: T1, Tat(44-61); experiment: MST
Tat(44-61) [2] = molecular target: T1, Tat(44-61); experiment: MST
Hfq [3] = molecular target: T2, Hfq (E. coli, UniProt P0A6X3 1-102); experiment: MST
Hfq [4] = molecular target: T2, Hfq; experiment: MST; remark: listed apart in the source
Hfq [5] = molecular target: T2, Hfq; experiment: EMSA

T2 sequence (P0A6X3 whole entry): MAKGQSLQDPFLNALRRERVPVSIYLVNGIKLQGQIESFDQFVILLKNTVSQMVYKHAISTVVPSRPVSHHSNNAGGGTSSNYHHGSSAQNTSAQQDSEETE

Row | Binder | binding result (Hfq [4]) | also measured
1 | AUGUGGAAAAUCUCUAGCAGU (ssRNA) [21R+] |  | Kd (Tat(44-61) [1]): 6.3 ± 0.5 µM
2 | ds21R (dsRNA) RNA 1: AUGUGGAAAAUCUCUAGCAGU RNA 2: ACUGCUAGAGAUUUUCCACAU |  | Kd (Tat(44-61) [2]): 7.4 ± 0.9 µM
3 | AAUUUAAUGUUUUAGUUACUA (ssRNA) [J2] |  | binding result (Hfq [3]): binds
4 | AAUUCAAUGUUUUAGUUACUG (ssRNA) [J3] | binds | 
5 | AACUCAAUGUCUUAGUUACUG (ssRNA) [J4] | binds | 
6 | GACUCAGUGUCAGAGUCACUG (ssRNA) [J6] | no binding | 
7 | JM6 (dsRNA) RNA 1: GACUCAGUGUCAGAGUCACUG RNA 2: CAGUGACUCUGACACUGAGUC | no binding | 
8 | AAUUUAAUGUUUUAUUUAUUA (ssRNA) [J1] |  | binding result (Hfq [5]): binds
